# Laboratory results as given in patent publication US20130071418.
# Experiments:
# PCP-consensus VPg = system: T1, PCP-consensus VPg
# T1 sequence: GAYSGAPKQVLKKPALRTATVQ
substance,measurement,setting,value
Coxsackie virus A25 polymerase (CVA Pol3D),uridylylation of VPg by Pol3D,CVA24 VPg,uridylylated the PCP-consensus VPg as well or better than the one encoded in their respective genomes
same,uridylylation of VPg by Pol3D,PCP-consensus VPg,both the PV-Pol3D and that of CVA uridylylated the PCP-consensus VPg as well or better than the one encoded in their respective genomes
